Tests used:
[1] = test system: Smad2/3-binding element (SBE); assay: SBE-driven luciferase reporter gene assay in MB114 cells; type: cell-based, murine; settings: MAGP-2-expressing vs GFP-expressing MB114 cells; TGF-β1 0-5 ng/ml overnight
Method: (§1) The effect putative angiogenic agents had on MB114 cell activities were determined as follows: (i) cell proliferation using a [^3H]thymidine incorporation assay as described (Albig et al, 2006; Albig and Schiemann, 2004; Albig and Schiemann, 2005); (ii) cell invasion through Matrigel matrices using a modified Boyden-chamber assay as described (Albig et al, 2006; Albig and Schiemann, 2004; Albig and Schiemann, 2005); (iii) p38 MAPK phosphorylation using immunoblot analyses as described (Albig et al, 2006; Albig and Schiemann, 2004; Albig and Schiemann, 2005); (iv) angiogenic sprouting in rat tail collagen matrices as described (Albig et al, 2006; Albig and Schiemann, 2004); and (v) Hes1- and SBE-driven luciferase reporter gene assays as described (Albig et al, 2006; Albig and Schiemann, 2004; Albig and Schiemann, 2005).
To further investigate the impact of MAGP-2 on Notch1 processing and NICD accumulation, the inventors took advantage of recent findings showing that the ability of TGF-β to induce Hes1 promoter activity requires Smad3 to interact physically with NICD (Blokzijl et al, 2003), a reaction that is dispensable for canonical Smad3-mediated signaling stimulated by TGF-β (Blokzijl et al, 2003). […]

p38 MAPK = p38 MAPK phosphorylation by immunoblot analyses; type: cell-based, murine; settings: serum-starved MB114 cells expressing the transgene; bFGF 50 ng/ml or EGF 10 ng/ml, 0-15 min
Method: as §1
The inventors' previous studies have associated stimulation of p38 MAPK activity with angiogenesis of MB114 cells and, conversely, inhibition of p38 MAPK activity with angiostasis of MB114 cells (Albig et al, 2006; Albig and Schiemann, 2004; Albig and Schiemann, 2005). […] The phosphorylation status of p38 MAPK was determined by immunoblotting whole cell lysates with phospho-specific p38 MAPK antibodies (p38-P). Differences in protein loading were monitored by reprobing stripped membranes with anti-p38 MAPK polyclonal antibodies (p38).

MB114 cells = assay: cell invasion through Matrigel matrices, modified Boyden-chamber assay; type: cell-based, murine; settings: MB114 cells stably expressing the transgene vs GFP; 48 h
Method: as §1
FIG. 1A show results from an experiment in which serum-starved MB114 cells, stably expressing either GFP or various putative angiogenic agents, were stimulated in the absence or presence of either bFGF (50 ng/ml) or EGF (10 ng/ml) for 24 h at 37° C. Differences in MB114 cell DNA synthesis was determined by measuring [^3H]thymidine incorporation into cellular DNA. […] In this experiment, invasion of MB114 cells expressing either GFP or various putative angiogenic agents through synthetic basement membranes was determined over 48 h using a modified Boyden-chamber assay.

Notch1 = target: T1, Notch1 (Mus musculus, UniProt Q01705); assay: Notch1 processing assay in human kidney 293T cells; type: cell-based; settings: co-expression with Notch1 and Jagged-1 in 293T cells
T1 construct: expressed in transfected cells; host or cells: human kidney 293T cells, transient transfection (LT-1 liposomes)
T1 sequence (Q01705 19-2531): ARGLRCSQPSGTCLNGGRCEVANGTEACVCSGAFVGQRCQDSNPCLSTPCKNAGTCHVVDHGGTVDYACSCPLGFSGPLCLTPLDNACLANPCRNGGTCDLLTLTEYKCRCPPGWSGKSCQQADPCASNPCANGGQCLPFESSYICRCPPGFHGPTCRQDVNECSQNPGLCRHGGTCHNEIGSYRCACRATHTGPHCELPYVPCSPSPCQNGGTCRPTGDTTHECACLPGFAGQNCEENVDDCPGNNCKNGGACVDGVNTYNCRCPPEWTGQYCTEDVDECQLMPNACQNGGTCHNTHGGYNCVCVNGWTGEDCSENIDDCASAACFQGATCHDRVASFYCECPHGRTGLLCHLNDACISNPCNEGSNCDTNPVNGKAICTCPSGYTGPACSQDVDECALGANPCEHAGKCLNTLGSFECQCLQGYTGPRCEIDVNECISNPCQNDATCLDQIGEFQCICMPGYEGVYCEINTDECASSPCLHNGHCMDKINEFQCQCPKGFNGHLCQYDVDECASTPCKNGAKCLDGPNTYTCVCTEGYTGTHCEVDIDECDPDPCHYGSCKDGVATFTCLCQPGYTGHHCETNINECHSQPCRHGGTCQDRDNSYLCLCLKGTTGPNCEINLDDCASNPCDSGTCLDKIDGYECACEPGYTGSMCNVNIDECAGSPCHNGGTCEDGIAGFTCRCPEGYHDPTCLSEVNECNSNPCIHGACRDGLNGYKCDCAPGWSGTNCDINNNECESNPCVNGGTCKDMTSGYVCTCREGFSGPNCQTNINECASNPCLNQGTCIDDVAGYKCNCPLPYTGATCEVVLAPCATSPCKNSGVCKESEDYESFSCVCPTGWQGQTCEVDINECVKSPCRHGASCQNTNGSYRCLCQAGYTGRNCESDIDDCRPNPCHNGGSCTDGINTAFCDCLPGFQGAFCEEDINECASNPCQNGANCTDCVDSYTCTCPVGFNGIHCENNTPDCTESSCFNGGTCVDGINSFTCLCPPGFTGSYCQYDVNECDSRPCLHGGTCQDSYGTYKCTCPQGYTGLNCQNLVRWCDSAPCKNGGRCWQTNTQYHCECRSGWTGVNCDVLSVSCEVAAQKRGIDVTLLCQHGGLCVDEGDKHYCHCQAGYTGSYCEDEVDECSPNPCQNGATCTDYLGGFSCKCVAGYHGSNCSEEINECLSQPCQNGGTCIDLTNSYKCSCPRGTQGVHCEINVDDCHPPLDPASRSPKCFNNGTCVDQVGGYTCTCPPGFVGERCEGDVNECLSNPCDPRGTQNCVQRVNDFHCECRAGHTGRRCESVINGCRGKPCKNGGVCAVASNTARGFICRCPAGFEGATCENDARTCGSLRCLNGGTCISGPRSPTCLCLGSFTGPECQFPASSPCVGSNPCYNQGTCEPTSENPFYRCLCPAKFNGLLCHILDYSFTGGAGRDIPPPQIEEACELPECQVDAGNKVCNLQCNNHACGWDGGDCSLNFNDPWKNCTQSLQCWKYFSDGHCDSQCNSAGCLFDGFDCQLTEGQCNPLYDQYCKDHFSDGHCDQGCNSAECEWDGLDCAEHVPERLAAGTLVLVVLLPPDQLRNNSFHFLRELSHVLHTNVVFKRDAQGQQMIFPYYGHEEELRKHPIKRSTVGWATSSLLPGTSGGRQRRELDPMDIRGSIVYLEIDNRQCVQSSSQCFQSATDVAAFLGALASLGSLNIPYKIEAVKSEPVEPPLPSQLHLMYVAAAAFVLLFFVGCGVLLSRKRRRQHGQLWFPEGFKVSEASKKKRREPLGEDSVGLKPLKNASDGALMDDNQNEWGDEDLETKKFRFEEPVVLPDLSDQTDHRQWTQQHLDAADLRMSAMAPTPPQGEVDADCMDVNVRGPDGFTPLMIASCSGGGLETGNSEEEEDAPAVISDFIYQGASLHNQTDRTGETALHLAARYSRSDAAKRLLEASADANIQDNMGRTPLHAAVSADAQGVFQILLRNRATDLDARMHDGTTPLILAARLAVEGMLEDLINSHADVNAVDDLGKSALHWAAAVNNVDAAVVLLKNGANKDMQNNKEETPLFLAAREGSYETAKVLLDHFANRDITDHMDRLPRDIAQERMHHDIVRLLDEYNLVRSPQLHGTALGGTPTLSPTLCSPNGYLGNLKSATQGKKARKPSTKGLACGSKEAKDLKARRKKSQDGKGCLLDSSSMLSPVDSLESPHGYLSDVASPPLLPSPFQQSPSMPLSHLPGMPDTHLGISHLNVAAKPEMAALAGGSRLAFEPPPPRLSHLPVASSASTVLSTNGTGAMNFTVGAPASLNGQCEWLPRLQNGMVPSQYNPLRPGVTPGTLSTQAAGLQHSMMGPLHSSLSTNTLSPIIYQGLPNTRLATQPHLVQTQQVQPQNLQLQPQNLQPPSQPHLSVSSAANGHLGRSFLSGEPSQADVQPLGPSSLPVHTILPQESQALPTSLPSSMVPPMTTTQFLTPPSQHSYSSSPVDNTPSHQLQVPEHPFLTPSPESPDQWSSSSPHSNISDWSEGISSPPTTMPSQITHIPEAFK
Method: To monitor the effects of MAGP-2 on the processing and S3 cleavage of Notch1, human kidney 293T cells were transiently transfected in 6-well plates with LT-1 liposomes containing 0.5 μg/well of Notch1 (pCS2+mN1FL6MT), 0.5 μg/well Jagged-1 (pCS2+Jag1-6MT), or 1.5 μg/well of MAGP-2 (pcDNA3.1-MAGP-2/Myc-His) in all combinations. Forty-eight h post-transfection, the cells were washed with ice-cold PBS, lysed immediately in Buffer H/1% Triton X-100 [500 μl/well; (Schiemann et al, 2002)], and incubated on ice for 30 min. Afterward, insoluble material was removed by microcentrifugation and 100 μl of the resulting clarified extract was fractionated through 6% SDS-PAGE gels. The fractionated proteins were transferred electrophoretically to nitrocellulose and probed with anti-Myc 9E10 monoclonal antibodies (Covance, Princeton, N.J.) to visual Notch1 cleavage species.
Activation of Notch1 signaling involves three proteolytic processing events, termed S1, S2, and S3, that produce three distinct Notch1 fragments, termed TMIC, NEXT, and NICD, respectively (Mumm et al, 2000). […] The inventors tested this possibility by transiently transfecting human 293T cells with cDNAs encoding Myc-tagged versions of Notch1, Jagged-1, and MAGP-2 in all combinations, and subsequently monitored changes in NICD production and accumulation by immunoblot analyses using anti-Myc monoclonal antibodies. […]

B1: MAGP-2: secreted glycoprotein (25 kDa); stably expressed in MB114 cells by bicistronic retroviral transduction, Myc-His tagged (protein)
chain: QRGDDVPETFTDDPNLVNDPSTDDTALADITPSTDDLAGDKNATAECRDEKFACTRLYSVHRPVRQCVHQSCFTSLRRMYIINNEICSRLVCKEHEAMKDELCRQMAGLPPRRLRRSNYFRLPPCENMNLQRPDGL
modifications: left off: small tags and cut ends
notes: secreted glycoprotein (25 kDa); stably expressed in MB114 cells by bicistronic retroviral transduction, Myc-His tagged
TGF-β stimulation of SBE-luciferase activity [1]: no effect | p38 MAPK phosphorylation (p38 MAPK): significantly enhanced | MB114 cell invasion through synthetic basement membranes (MB114 cells): significantly induced | ability of Jagged-1 to induce Notch1 cleavage and NICD production (Notch1): reduced significantly
